Molecular target: neuropilin-1 on adult rat brain oligodendrocytes (rat) (UniProt Q9QWJ9)

branching index (BI) of oligodendrocyte process extension (% decrease of BI at 48 h): 81
half-effect, corresponding to a BI reduction of 50%: 25 ng/mL
Substance: Sema3A (ligand)
